These results are taken from the RNAGym collection of RNA variant scans (doi:10.7554/elife.90254).

B1: LINE1-mini (parent)
chain: GGCAGAGCUCAACACAGCGUGGCAAAGUGGCUGUGGCUAGACUGCC

Variants of B1 are the subject of this data set. Kind of data set: self-cleavage, relative activity (ratio to wild type); higher = more cleavage; in vitro, sequencing; the parent is a self-cleaving ribozyme.
For C8A G29A, the self-cleavage stood at 0.26. As to C8A G29U, the self-cleavage is 0.43. Turning to C8A G29C, the self-cleavage stood at 0.14. Consider G7C C37G, for which the self-cleavage is 0.03. On to G7C C37A, for which the self-cleavage is 0.09. Regarding G7C C37U, the self-cleavage is 0.13. In the case of G7C C23A, the self-cleavage amounted to 0.09. Consider G7C C23U, for which the self-cleavage turned out to be 0.1.

Turning to G7C C23G, the self-cleavage was 0.1.

Consider C8A G17C, for which the self-cleavage turned out to be 0.22. As for C8A G17A, the figure is 0.3; as for C8A G17U, 0.27. Turning to G7C U28C, the self-cleavage turned out to be 0.1. As for G7C U28G, the figure is 0.08. As to G7C U28A, the self-cleavage amounted to 0.18. As for C8A G30U, the figure is 0.59; as for C8A G30C, 0.26. On to C8A G30A, for which the self-cleavage stood at 0.42.

For G7U G17U, the self-cleavage stood at 0.12. Take G7U G17C: the self-cleavage was 0.07. Consider G7U G17A, for which the self-cleavage amounted to 0.08.

For C8A G33C, the self-cleavage is 0.28. For C8A G33A, the self-cleavage worked out at 0.16. Regarding C8A G33U, the self-cleavage was 0.18. For G7C C10U, the self-cleavage is 0.04. G7C C10A: the self-cleavage turned out to be 0.04. G7C C10G: the self-cleavage stood at 0.03. Consider G7U G35A, for which the self-cleavage came out at 0.1. In the case of G7U G35U, the self-cleavage is 0.1.

On to G7U G35C, for which the self-cleavage came out at 0.08. Regarding G7C G40C, the self-cleavage was 0.05. As to G7C G40U, the self-cleavage stood at 0.26. As to G7C G40A, the self-cleavage is 0.13. For the variant C8A A25U, the self-cleavage is 0.36. Take C8A A25G: the self-cleavage was 0.23. To C8A A25C belongs 0.45; to G7U A39C, 0.19; to G7U A39U, 0.1. To G7U A39G belongs 0.06. Turning to G7C C45A, the self-cleavage amounted to 0.1. Take G7C C45G: the self-cleavage is 0.11. To G7C C45U belongs 0.16. Take G7U C46G: the self-cleavage is 0.09. For G7U C46A, the self-cleavage stood at 0.19. On to G7U C46U, for which the self-cleavage came to 0.03. Regarding G7U C31G, the self-cleavage came out at 0.06. As for G7U C31A, the self-cleavage stood at 0.09. In the case of G7U C31U, the self-cleavage was 0.1. Consider C8A C45U, for which the self-cleavage stood at 0.32.

As to C8A C45G, the self-cleavage came to 0.28. As to C8A C45A, the self-cleavage worked out at 0.7.

C8A G35C: the self-cleavage was 0.16. To C8A G35U belongs 0.44; to C8A G35A, 0.42; to G7C U32C, 0.07.

For G7C U32A, the self-cleavage came out at 0.05. With G7C U32G, the self-cleavage worked out at 0.05. As for G7C G30C, the figure is 0.13; as for G7C G30A, 0.13; as for G7C G30U, 0.1. As for C8G A11U, the self-cleavage was 0.03. Regarding C8G A11C, the self-cleavage is 0.02. C8G A11G: the self-cleavage was 0.03. Turning to C8A U34G, the self-cleavage worked out at 0.34.

Regarding C8A U34A, the self-cleavage was 0.25. As for C8A U34C, the self-cleavage came to 0.26. To G7U A12C belongs 0.02; to G7U A12G, 0.04; to G7U A12U, 0.07. For the variant G7U U28C, the self-cleavage came to 0.05. On to G7U U28A, for which the self-cleavage turned out to be 0.03. Regarding G7U U28G, the self-cleavage amounted to 0.07.

As to G7U C23U, the self-cleavage came to 0.06. G7U C23A: the self-cleavage was determined as 0.06. With G7U C23G, the self-cleavage is 0.08. Turning to G7U U9G, the self-cleavage was found to be 0.09. Take G7U U9A: the self-cleavage was found to be 0.23. To G7U U9C belongs 0.04.

For G7C G29A, the self-cleavage was 0.13. As for G7C G29C, the figure is 0.05. Consider G7C G29U, for which the self-cleavage stood at 0.13.

As for G7U G19C, the self-cleavage stood at 0.05.

For G7U G19A, the self-cleavage stood at 0.07. In the case of G7U G19U, the self-cleavage came out at 0.05. To C8A U38G belongs 0.07; to C8A U38A, 0.26; to C8A U38C, 0.2. For C8A G21U, the self-cleavage was 0.23. C8A G21A: the self-cleavage came to 0.63.

With C8A G21C, the self-cleavage is 0.21. Turning to G7U G21A, the self-cleavage is 0.14. To G7U G21U belongs 0.1; to G7U G21C, 0.08. As for G7C G44A, the self-cleavage was 0.09. Consider G7C G44C, for which the self-cleavage was 0.18. To G7C G44U belongs 0.15; to G7U G40C, 0.12; to G7U G40A, 0.16. For the variant G7U G40U, the self-cleavage was 0.18. Regarding G7C U43G, the self-cleavage was 0.05. As to G7C U43A, the self-cleavage stood at 0.15. On to G7C U43C, for which the self-cleavage worked out at 0.33. As for G7U G27U, the self-cleavage was found to be 0.08. In the case of G7U G27C, the self-cleavage was 0.1. Turning to G7U G27A, the self-cleavage stood at 0.07.

In the case of C8A C10U, the self-cleavage stood at 0.08. In the case of C8A C10A, the self-cleavage was found to be 0.04. As for C8A C10G, the self-cleavage stood at 0.02. As to G7C U34C, the self-cleavage is 0.06. As for G7C U34G, the self-cleavage turned out to be 0.02. As for G7C U34A, the figure is 0.05; as for C8A C31U, 0.21; as for C8A C31A, 0.36. Consider C8A C31G, for which the self-cleavage worked out at 0.15. With C8G A12U, the self-cleavage was determined as 0.13. In the case of C8G A12C, the self-cleavage worked out at 0.02. On to C8G A12G, for which the self-cleavage is 0.03. Turning to G7C C31U, the self-cleavage turned out to be 0.05. As for G7C C31G, the figure is 0.06; as for G7C C31A, 0.09; as for G7U U32C, 0.22. G7U U32A: the self-cleavage came to 0.08. Consider G7U U32G, for which the self-cleavage was 0.11. Take C8A A39C: the self-cleavage was 0.32. With C8A A39G, the self-cleavage was 0.08.

For C8A A39U, the self-cleavage stood at 0.45. Turning to G7C A41U, the self-cleavage is 0.21. As for G7U A11G, the self-cleavage worked out at 0.03.

On to G7U A11U, for which the self-cleavage turned out to be 0.04.

With G7U A11C, the self-cleavage amounted to 0.02. To G7C G21C belongs 0.08; to G7C G21U, 0.08; to G7C G21A, 0.2. To G7C G17U belongs 0.09; to G7C G17A, 0.07; to G7C G17C, 0.1. With C8A U9A, the self-cleavage came to 0.24.

Consider C8A U9C, for which the self-cleavage worked out at 0.14.

Consider C8A U9G, for which the self-cleavage is 0.03. Regarding G7U G36C, the self-cleavage was determined as 0.09. Turning to G7U G36A, the self-cleavage is 0.11.

As for G7U G36U, the self-cleavage was 0.05. Turning to G7U A41C, the self-cleavage was 0.24.

Consider G7U A41G, for which the self-cleavage amounted to 0.09.

For the variant G7U A41U, the self-cleavage is 0.21.

In the case of G7C C46G, the self-cleavage was determined as 0.08. To G7C C46U belongs 0.08; to G7C C46A, 0.18; to G7C U9A, 0.09.

G7C U9C: the self-cleavage is 0.03. For the variant G7C U9G, the self-cleavage came to 0.28. Turning to C8A G19C, the self-cleavage is 0.1.

For the variant C8A G19U, the self-cleavage was found to be 0.11.

For C8A G19A, the self-cleavage was found to be 0.38. Consider G7U A24C, for which the self-cleavage is 0.06. As to G7U A24U, the self-cleavage stood at 0.07. Regarding G7U A24G, the self-cleavage was 0.06. For the variant C8A G22U, the self-cleavage was determined as 0.24. Take C8A G22A: the self-cleavage was found to be 0.18.

Regarding C8A G22C, the self-cleavage was found to be 0.17. For C8A A14G, the self-cleavage came out at 0.56.

With C8A A14U, the self-cleavage is 0.25. As for C8A A14C, the self-cleavage stood at 0.18. With C8A U20A, the self-cleavage was determined as 0.14.

On to C8A U20C, for which the self-cleavage worked out at 0.15. To C8A U20G belongs 0.15; to C8A C42G, 0.19.
